{"source": "paper PMC4836315", "key": {"[1]": {"target": "PRRSV nsp11 mutant F76A, pET-30a (+) construct (PRRSV strain WUH3)"}, "[2]": {"target": "PRRSV nsp11 mutant R153A made on the K173A template", "assay": "sedimentation velocity analytical ultracentrifugation (AUC)"}, "[3]": {"target": "PRRSV nsp11 mutant L54A (PRRSV strain WUH3)", "assay": "SEC; data not shown; Superdex 75 10/300 GL under the same buffer conditions (20 mM Tris-HCl pH 7.4, 200 mM NaCl), 1 mg protein"}, "[4]": {"target": "PRRSV nsp11 mutant S74A, pET-30a (+) construct (PRRSV strain WUH3)"}, "[5]": {"target": "PRRSV nsp11 mutant F76A made on the K173A template", "assay": "sedimentation velocity analytical ultracentrifugation (AUC)"}, "[6]": {"target": "PRRSV nsp11 mutant R55A (PRRSV strain WUH3)", "assay": "SEC; data not shown; Superdex 75 10/300 GL under the same buffer conditions (20 mM Tris-HCl pH 7.4, 200 mM NaCl), 1 mg protein"}, "[7]": {"target": "PRRSV nsp11 mutant Y69A (PRRSV strain WUH3)", "assay": "SEC; data not shown; Superdex 75 10/300 GL under the same buffer conditions (20 mM Tris-HCl pH 7.4, 200 mM NaCl), 1 mg protein"}, "[8]": {"target": "PRRSV nsp11 mutant G137A (PRRSV strain WUH3)", "assay": "SEC; data not shown; Superdex 75 10/300 GL under the same buffer conditions (20 mM Tris-HCl pH 7.4, 200 mM NaCl), 1 mg protein"}, "[9]": {"target": "PRRSV nsp11 mutant S74A made on the K173A template", "assay": "sedimentation velocity analytical ultracentrifugation (AUC)"}, "[10]": {"target": "PRRSV nsp11 mutant V165A (PRRSV strain WUH3)", "assay": "SEC; data not shown; Superdex 75 10/300 GL under the same buffer conditions (20 mM Tris-HCl pH 7.4, 200 mM NaCl), 1 mg protein"}, "[11]": {"target": "PRRSV nsp11 mutant K173A, pET-42b (+) construct with C-terminal His6 tag (PRRSV strain WUH3)", "assay": "AUC; sedimentation velocity, 45,000 rpm, 18°C, 280 nm, c(s) distribution with Sedfit"}, "[12]": {"target": "PRRSV nsp11 mutant K173A, pET-42b (+) construct with C-terminal His6 tag (PRRSV strain WUH3)", "assay": "SEC; Superdex 75 10/300 GL, 20 mM Tris-HCl pH 7.4, 200 mM NaCl, 0.6 ml/min, 4°C, 1 mg protein; masses from a calibration curve; fractions checked by SDS-PAGE"}, "[13]": {"target": "PRRSV nsp11 mutant G138A (PRRSV strain WUH3)", "assay": "SEC; data not shown; Superdex 75 10/300 GL under the same buffer conditions (20 mM Tris-HCl pH 7.4, 200 mM NaCl), 1 mg protein"}, "[14]": {"target": "PRRSV nsp11 mutant G1A (PRRSV strain WUH3)", "assay": "SEC; data not shown; Superdex 75 10/300 GL under the same buffer conditions (20 mM Tris-HCl pH 7.4, 200 mM NaCl), 1 mg protein"}, "[15]": {"target": "PRRSV nsp11 mutant S166A (PRRSV strain WUH3)", "assay": "SEC; data not shown; Superdex 75 10/300 GL under the same buffer conditions (20 mM Tris-HCl pH 7.4, 200 mM NaCl), 1 mg protein"}, "[16]": {"settings": "parent: 4.396 (dimer species, 86.67%), 2.614 (monomer species, 14.04%)"}, "[17]": {"settings": "parent: 63.7 (dimer species, 86.67%), 29.2 (monomer species, 14.04%)"}}}
{"substance": "PRRSV nsp11 mutant F76A, pET-30a (+) construct (enzyme)", "values": [{"measurement": "endoribonuclease activity (FRET assay, 2 μM enzyme, 1 μM fluorescent RNA substrate, 25°C), against wild-type nsp11 (fold less than wild type)", "setting": "[1]", "value": "> 4"}]}
{"substance": "PRRSV nsp11 mutant K173A, pET-42b (+) construct with C-terminal His6 tag R153A", "values": [{"measurement": "other: sedimentation coefficient S20,W", "setting": "[2]; [16]", "value": 3.4, "unit": "S"}, {"measurement": "other: calculated molecular weight (MW) from AUC", "setting": "[2]; [17]", "value": 40.7}]}
{"substance": "PRRSV nsp11 mutant L54A (enzyme)", "values": [{"measurement": "stoichiometry N", "setting": "[3]", "value": 2}]}
{"substance": "PRRSV nsp11 mutant S74A, pET-30a (+) construct (enzyme)", "values": [{"measurement": "endoribonuclease activity (FRET assay, 2 μM enzyme, 1 μM fluorescent RNA substrate, 25°C), against wild-type nsp11 (fold less than wild type)", "setting": "[4]", "value": "> 4"}]}
{"substance": "PRRSV nsp11 mutant K173A, pET-42b (+) construct with C-terminal His6 tag F76A", "values": [{"measurement": "other: sedimentation coefficient S20,W", "setting": "[5]; [16]", "value": 3.07, "unit": "S"}, {"measurement": "other: calculated molecular weight (MW) from AUC", "setting": "[5]; [17]", "value": 37.8}]}
{"substance": "PRRSV nsp11 mutant R55A (enzyme)", "values": [{"measurement": "stoichiometry N", "setting": "[6]", "value": 2}]}
{"substance": "PRRSV nsp11 mutant Y69A (enzyme)", "values": [{"measurement": "stoichiometry N", "setting": "[7]", "value": 2}]}
{"substance": "PRRSV nsp11 mutant G137A (enzyme)", "values": [{"measurement": "stoichiometry N", "setting": "[8]", "value": 2}]}
{"substance": "PRRSV nsp11 mutant K173A, pET-42b (+) construct with C-terminal His6 tag S74A", "values": [{"measurement": "other: sedimentation coefficient S20,W", "setting": "[9]; [16]", "value": 3.32, "unit": "S"}, {"measurement": "other: calculated molecular weight (MW) from AUC", "setting": "[9]; [17]", "value": 50.2}]}
{"substance": "PRRSV nsp11 mutant V165A (enzyme)", "values": [{"measurement": "stoichiometry N", "setting": "[10]", "value": 2}]}
{"substance": "PRRSV nsp11 mutant K173A, pET-42b (+) construct with C-terminal His6 tag (enzyme)", "values": [{"measurement": "percent dimer", "setting": "[11]", "value": 86.7, "unit": "%"}, {"measurement": "percent monomer", "setting": "[11]", "value": 14, "unit": "%"}, {"measurement": "stoichiometry N", "setting": "[12]", "value": 2}]}
{"substance": "PRRSV nsp11 mutant G138A (enzyme)", "values": [{"measurement": "stoichiometry N", "setting": "[13]", "value": 2}]}
{"substance": "PRRSV nsp11 mutant G1A (enzyme)", "values": [{"measurement": "stoichiometry N", "setting": "[14]", "value": 2}]}
{"substance": "PRRSV nsp11 mutant S166A (enzyme)", "values": [{"measurement": "stoichiometry N", "setting": "[15]", "value": 2}]}
